{"source": "paper PMC11335211", "about": "“In vivo photocontrol of orexin receptors with a nanomolar light-regulated analogue of orexin-B” (Cellular and Molecular Life Sciences: CMLS, 2024)", "key": {"[1]": {"target": "T1, human OX1 (Homo sapiens, UniProt O43613)", "T1 construct": "expressed in transfected cells", "T1 sequence (O43613 1-425)": "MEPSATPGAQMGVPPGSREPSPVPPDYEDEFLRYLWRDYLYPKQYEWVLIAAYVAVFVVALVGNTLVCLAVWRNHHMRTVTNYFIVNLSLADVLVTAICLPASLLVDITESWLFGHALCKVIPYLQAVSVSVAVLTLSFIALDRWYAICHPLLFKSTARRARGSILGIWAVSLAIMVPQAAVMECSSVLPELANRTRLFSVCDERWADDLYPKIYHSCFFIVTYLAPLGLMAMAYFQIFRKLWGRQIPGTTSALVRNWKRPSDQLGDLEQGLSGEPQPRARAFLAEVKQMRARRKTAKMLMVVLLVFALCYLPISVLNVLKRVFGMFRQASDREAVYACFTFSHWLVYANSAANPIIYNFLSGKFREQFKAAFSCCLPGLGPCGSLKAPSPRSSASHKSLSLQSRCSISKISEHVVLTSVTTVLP", "test": "FLIPR Tetra calcium mobilization assay, CHO-K1 cells", "format": "cell-based", "settings": "CHO-K1 cells stably expressing hOX1; 0.3 nM to 1 µM; two independent experiments in triplicates", "procedure": "(§1) Samples of trans phOX were kept in the dark both prior to and during the whole duration of the experiment to avoid undesired photoconversion caused by environmental light. Unless differently stated, data for cis phOX were obtained by pre-illuminating the samples for 10 min with 365 nm UV light.\n(§2) PFSK-1 cells were cultured in RPMI 1640 supplemented with 10% fetal bovine serum (FBS), 100 units/ml penicillin, and 100 µg/ml streptomycin. Chinese hamster ovary-K1 (CHO-K1) cells stably transfected to express human OX1 were cultured in Dulbecco’s Modified Eagle’s Medium/Nutrient Mixture F-12 Ham (DMEM/F12 1:1) medium supplemented with 10% FBS and 600 µg/ml G418. All cell lines were grown at 37 °C in 5% CO2.\n(§3) Cells were plated at 50,000 cells/well in 96-well black-wall plates with poly-D-lysine-coated clear bottoms and grown overnight at 37 °C in 5% CO2. […] Calcium-mediated changes in fluorescence were monitored in a Fluorometric Imaging Plate Reader (FLIPR) Tetra instrument (Molecular Devices, USA). Fluorescence intensity was measured for 12 s to establish baseline fluorescence before addition of the test compound (20 µL/well) and further readings for a total of 155 s (excitation at 470–495 nm, detection at 515–575 nm). […]\n(§4) Raw data from the FLIPR Tetra was exported as the difference between maximum and minimum fluorescence observed for each well. […] Agonist potencies (EC50) are expressed as means + SD."}, "[2]": {"target": "T2, hOX2 (Homo sapiens, UniProt O43614)", "T2 sequence (O43614 1-444)": "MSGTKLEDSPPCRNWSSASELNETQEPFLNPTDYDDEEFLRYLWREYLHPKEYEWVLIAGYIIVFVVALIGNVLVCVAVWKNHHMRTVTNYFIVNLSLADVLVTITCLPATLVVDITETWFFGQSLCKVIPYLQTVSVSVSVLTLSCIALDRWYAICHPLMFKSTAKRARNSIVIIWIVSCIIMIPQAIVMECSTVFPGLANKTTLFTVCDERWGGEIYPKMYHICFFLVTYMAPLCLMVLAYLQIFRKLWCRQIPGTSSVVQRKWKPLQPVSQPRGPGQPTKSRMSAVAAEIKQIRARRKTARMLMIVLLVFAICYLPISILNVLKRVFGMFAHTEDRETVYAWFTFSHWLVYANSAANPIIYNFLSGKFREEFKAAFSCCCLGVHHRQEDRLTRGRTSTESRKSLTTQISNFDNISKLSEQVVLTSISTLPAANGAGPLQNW", "test": "FLIPR Tetra calcium mobilization assay, PFSK-1 cells", "format": "cell-based", "settings": "PFSK-1 cells innately expressing hOX2; 0.3 nM to 1 µM; two independent experiments in triplicates", "procedure": "as §1, §2, §3, §4"}, "[3]": {"test_system": "OX2", "settings": "in words; cited from earlier work", "text": "Among these, a family of neuroexcitatory peptides known as orexins (or hypocretins) is critically involved in regulating sleep and wakefulness, energy homeostasis, and reward. Orexin signaling is mediated by two closely related G protein-coupled receptors (GPCRs) – OX1 and OX2 (orexin) receptors – which are strongly conserved among mammals. While orexin cell bodies are concentrated in the hypothalamic area, orexin receptors are widely expressed in the central nervous system (CNS). Their endogenous ligands are two peptides, named ..."}, "[4]": {"test_system": "OX1 receptor", "settings": "membrane-based binding assay; ref Langmead et al., 5 (SI); cited from earlier work", "text": "Although the lack of binding with all three forms of OX-B - including the native ligand control - came unexpected, similar findings had already been observed for the OX1 receptor."}, "[5]": {"parameters": "method as in 2 sources, one per row (each row's own in cited_ref): ref 75–77 = [75]; PMID 10087007; 75. Kastin AJ Akerstrom V Orexin A but not orexin B rapidly enters brain from blood by simple diffusion J Pharmacol Exp Ther 1999 289 219 223 10087007 || [76]; PMID 12626669; doi:10.1113/jphysiol.2002.038729; 76. John J Wu M-F Kodama T Siegel JM Intravenously administered hypocretin-1 alters brain amino acid release: an in vivo microdialysis study in rats J Physiol 2003 548 557 562 10.1113/jphysiol.2002.03 || [77]; PMID 14746374; doi:10.1093/sleep/26.8.953; 77. Fujiki N Yoshida Y Ripley B Mignot E Nishino S Effects of IV and ICV hypocretin-1 (orexin A) in hypocretin receptor-2 gene mutated narcoleptic dogs and IV hypocretin-1 replacement therapy in a hyp ||| ref 75 = [75]; PMID 10087007; 75. Kastin AJ Akerstrom V Orexin A but not orexin B rapidly enters brain from blood by simple diffusion J Pharmacol Exp Ther 1999 289 219 223 10087007", "settings": "cited from earlier work"}, "[6]": {"parameters": "method as in PMID 10087007", "settings": "cited from earlier work"}, "[7]": {"target": "T2, hOX2", "test": "Radioligand competitive binding assay ([3H]EMPA)", "parameters": "expressed in transfected cells; membranes", "settings": "control ligands; HEK-293-hOX2 membranes, [3H]EMPA 2 nM, 60 min rt, 10^-9 to 10^-6 M; two independent experiments in triplicates", "text": "The affinity towards OX2 was studied in a competitive radioligand binding assay on membranes derived from HEK-293 cells stably transfected with the human receptor. [^3H]EMPA, an OX2-selective orthosteric antagonist, was used as radioactive tracer to quantify residual binding after competitive displacement in the presence of the unlabeled ligands.^3 Wild-type OX-B and almorexant, a non-selective OX1 and OX2 antagonist, served as controls.^4\n[^3H]EMPA (specific activity 27 Ci/mmol) and almorexant were synthesized at Janssen Research & Development LLC (San Diego, CA), while orexin-B was obtained from Bachem (Torrance, CA).\nCell membranes were prepared from a stable pool of HEK-293 cells transfected with the human OX2. Test compounds were dissolved in DMSO (10 mM stock solutions) and diluted in Dulbecco’s phosphate-buffered saline supplemented with 0.1% bovine serum albumin (BSA). Competition studies were performed by incubating the membranes with the OX2-selective antagonist [^3H]EMPA (2 nM) and different concentrations of the test compounds (7 concentrations ranging from 10^−9 to 10^−6 M). After a 60-minute incubation at rt, binding reactions were filtered to separate the excess of free ligand from the membranes. Filters were then counted for radioactivity in a scintillation counter. Nonspecific binding was determined in the presence of 10 µM almorexant.\nSpecific binding was determined and plotted as a function of the concentration of the compound using GraphPad Prism v8.3.1 (GraphPad Software, San Diego, USA). Data were analyzed by nonlinear regression using a one-site competition model."}}, "data": [{"substance": "OX-B: endogenous orexin peptide, native ligand control, obtained from Bachem", "values": [{"measurement": "increase in calcium release (agonist activity)", "setting": "[1]", "result": "increased calcium release in a concentration-dependent manner"}, {"measurement": "increase in calcium release (agonist activity)", "setting": "[2]", "result": "increased calcium release in a concentration-dependent manner"}, {"measurement": "receptor selectivity", "setting": "[3]", "result": "selective for OX2"}, {"measurement": "occupation of OX1 orthosteric site versus [3H]SB-674042", "setting": "[4]", "result": "failed to occupy the receptor orthosteric site"}, {"measurement": "metabolism", "setting": "[5]", "result": "readily metabolized"}, {"measurement": "lipophilicity relative to OX-A", "setting": "[6]", "result": "not as lipophilic"}, {"measurement": "inhibition of [3H]EMPA binding", "setting": "[7]", "result": "did not compete to bind to the receptor"}]}]}
